Earlier results in paper PMC5801593.

Target: IscS (Escherichia coli) (UniProt P0A6B7)
Test: fluorescence labeling and calorimetry

Chain of IscS (Escherichia coli) (P0A6B7 whole entry): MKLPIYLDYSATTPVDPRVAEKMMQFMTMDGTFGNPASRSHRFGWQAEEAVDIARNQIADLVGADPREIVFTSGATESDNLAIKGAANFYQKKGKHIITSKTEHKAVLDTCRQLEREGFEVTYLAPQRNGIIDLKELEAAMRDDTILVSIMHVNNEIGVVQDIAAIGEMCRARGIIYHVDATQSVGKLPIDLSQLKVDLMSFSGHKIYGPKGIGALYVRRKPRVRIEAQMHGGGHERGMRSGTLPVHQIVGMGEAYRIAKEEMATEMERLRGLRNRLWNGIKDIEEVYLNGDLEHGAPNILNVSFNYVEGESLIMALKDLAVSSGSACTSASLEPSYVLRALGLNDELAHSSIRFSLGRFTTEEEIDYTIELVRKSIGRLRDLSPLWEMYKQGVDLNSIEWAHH
Chain of CyaY (P27838 whole entry): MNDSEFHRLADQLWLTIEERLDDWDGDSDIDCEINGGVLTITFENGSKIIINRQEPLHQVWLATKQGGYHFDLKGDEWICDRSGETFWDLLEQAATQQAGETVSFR

Substance	Kd
CyaY (from UniProt P27838)	20 µM
IscX (from UniProt P0C0L9)	12 µM
